Assay results reported in the Human Domainome abundance scans (Beltran et al. 2025).
± gives the uncertainty stated by the source.

B1: Receptor-interacting serine/threonine-protein kinase 2, residues 438 to 518; numbered along this chain, O43353 (parent)
chain: QWIQSKREDIVNQMTEACLNQSLDALLSRDLIMKEDYELVSTKPTRTSKVRQLLDTTDIQGEEFAKVIVQKLKDNKQMGLQ

Variants of: B1
Experiment: abundance fitness (aPCA) (normalised: wild type 0, dead -1); higher = more abundant; growth selection in yeast, the domain comes from the species named
Conditions: Homo sapiens

First: Y37W
Second: D24L
The abundance fitness of the first is higher: -0.232 ± 0.066 for the first, -0.569 ± 0.11 for the second.

D24P and D24W are within error of each other in abundance fitness: -0.68 ± 0.099 for the first, -0.881 ± 0.21 for the second.

Going from D24E to T45A, the abundance fitness falls from 0.034 ± 0.33 to -0.476 ± 0.082.

T45L and T45P are within error of each other in abundance fitness: -0.696 ± 0.069 for the first, -0.579 ± 0.092 for the second.

T45E and T45N are within error of each other in abundance fitness: -0.364 ± 0.25 for the first, -0.011 ± 0.23 for the second.

T45C and D9W are within error of each other in abundance fitness: -0.308 ± 0.11 for the first, -0.147 ± 0.088 for the second.

D9Y and D9H are within error of each other in abundance fitness: -0.107 ± 0.15 for the first, -0.336 ± 0.19 for the second.

Compared with Q4I, Q4V is lower in abundance fitness: 0.135 ± 0.39 for the first, -0.756 ± 0.34 for the second.

Going from Q4S to R46F, the abundance fitness falls from 0.09 ± 0.15 to -0.447 ± 0.14.

R46V and R46T are within error of each other in abundance fitness: -0.045 ± 0.034 for the first, 0.02 ± 0.091 for the second.

E38T and E38V are within error of each other in abundance fitness: -0.157 ± 0.076 for the first, -0.226 ± 0.1 for the second.

Compared with E38G, E38Y is higher in abundance fitness: -0.509 ± 0.084 for the first, -0.237 ± 0.12 for the second.

E38M and R7Q are within error of each other in abundance fitness: -0.088 ± 0.25 for the first, -0.463 ± 0.13 for the second.

Going from R7M to R7G, the abundance fitness rises from -1.09 ± 0.42 to -0.563 ± 0.079.

Compared with R7C, R7K is higher in abundance fitness: -1.04 ± 0.31 for the first, 0.032 ± 0.14 for the second.

First: R7W
Second: R7A
The abundance fitness of the first is lower: -0.673 ± 0.12 for the first, -0.334 ± 0.081 for the second.

D36K and D36R are within error of each other in abundance fitness: -0.545 ± 0.14 for the first, -0.718 ± 0.074 for the second.

I68Y and I68P are within error of each other in abundance fitness: -0.568 ± 0.24 for the first, -0.462 ± 0.07 for the second.

Going from I68R to I68M, the abundance fitness rises from -0.695 ± 0.07 to -0.201 ± 0.14.

Q13M and Q13L are within error of each other in abundance fitness: -0.369 ± 0.48 for the first, -0.541 ± 0.16 for the second.

Q13G and D30S are within error of each other in abundance fitness: -0.365 ± 0.13 for the first, -0.166 ± 0.087 for the second.

Compared with D30N, D30E is higher in abundance fitness: -0.401 ± 0.18 for the first, -0.03 ± 0.089 for the second.

First: D30G
Second: D30C
The abundance fitness of the first is higher: 0.122 ± 0.055 for the first, -0.332 ± 0.15 for the second.

V11P and V11F are within error of each other in abundance fitness: -0.503 ± 0.087 for the first, -0.777 ± 0.46 for the second.

V11A and Q52F are within error of each other in abundance fitness: -0.49 ± 0.075 for the first, -0.403 ± 0.14 for the second.

Q52V and Q52H are within error of each other in abundance fitness: -0.603 ± 0.081 for the first, -0.493 ± 0.15 for the second.

Q52K and Q52S are within error of each other in abundance fitness: -0.442 ± 0.24 for the first, -0.196 ± 0.045 for the second.

Compared with Q52C, Q52L is lower in abundance fitness: -0.203 ± 0.12 for the first, -0.57 ± 0.084 for the second.

Going from Q52A to M33Y, the abundance fitness falls from 0.082 ± 0.074 to -0.439 ± 0.23.

Compared with M33S, M33W is lower in abundance fitness: 0.195 ± 0.073 for the first, -0.646 ± 0.094 for the second.

Compared with M33P, V69K is lower in abundance fitness: -0.039 ± 0.054 for the first, -0.35 ± 0.13 for the second.

V69Q and V69A are within error of each other in abundance fitness: -0.306 ± 0.085 for the first, -0.384 ± 0.097 for the second.

V69M and V69C are within error of each other in abundance fitness: 0.003 ± 0.11 for the first, -0.159 ± 0.11 for the second.

V69I and V69Y are within error of each other in abundance fitness: -0.051 ± 0.16 for the first, -0.23 ± 0.17 for the second.

N12F and N12V are within error of each other in abundance fitness: -0.62 ± 0.16 for the first, -0.374 ± 0.086 for the second.

Going from N12W to N12D, the abundance fitness rises from -0.829 ± 0.19 to -0.089 ± 0.14.

N12K and N12H are within error of each other in abundance fitness: -0.039 ± 0.15 for the first, -0.108 ± 0.11 for the second.

First: K34E
Second: K34T
The abundance fitness of the first is higher: 0.024 ± 0.11 for the first, -0.515 ± 0.22 for the second.

Compared with K34S, A17I is lower in abundance fitness: -0.23 ± 0.065 for the first, -0.569 ± 0.21 for the second.

A17D and A17S are within error of each other in abundance fitness: 0.042 ± 0.11 for the first, -0.117 ± 0.056 for the second.

Going from A17W to A17F, the abundance fitness falls from -0.485 ± 0.1 to -0.839 ± 0.16.

A17M and A17G are within error of each other in abundance fitness: -0.25 ± 0.16 for the first, -0.175 ± 0.055 for the second.

Going from A17P to T56W, the abundance fitness rises from -0.33 ± 0.057 to 0.125 ± 0.11.

T56Q and T56H are within error of each other in abundance fitness: -0.024 ± 0.083 for the first, -0.206 ± 0.16 for the second.

First: T56R
Second: T56L
The abundance fitness of the first is lower: -0.533 ± 0.067 for the first, 0.175 ± 0.061 for the second.

First: T56I
Second: T56E
The abundance fitness of the first is higher: 0.19 ± 0.15 for the first, -0.332 ± 0.16 for the second.

Going from T56G to T56S, the abundance fitness rises from -0.458 ± 0.061 to -0.273 ± 0.058.

T47V and T47D are within error of each other in abundance fitness: -0.153 ± 0.085 for the first, -0.152 ± 0.11 for the second.

First: T47F
Second: T47R
The abundance fitness of the first is lower: -0.493 ± 0.33 for the first, 0.049 ± 0.051 for the second.

Q1L and Q1H are within error of each other in abundance fitness: -0.399 ± 0.28 for the first, -0.398 ± 0.4 for the second.

D58F and D58T are within error of each other in abundance fitness: 0.001 ± 0.17 for the first, -0.015 ± 0.07 for the second.

D58R and D58M are within error of each other in abundance fitness: -0.154 ± 0.058 for the first, -0.033 ± 0.09 for the second.

L23R and L23S are within error of each other in abundance fitness: -0.695 ± 0.079 for the first, -0.616 ± 0.12 for the second.

Compared with L23H, L23F is lower in abundance fitness: -0.174 ± 0.13 for the first, -0.764 ± 0.24 for the second.

A65V and A65L are within error of each other in abundance fitness: -0.933 ± 0.1 for the first, -0.949 ± 0.097 for the second.

A65F and A65Q are within error of each other in abundance fitness: -1.12 ± 0.23 for the first, -0.743 ± 0.16 for the second.

A65E and A65Y are within error of each other in abundance fitness: -0.456 ± 0.15 for the first, -0.691 ± 0.12 for the second.

S28I and S28W are within error of each other in abundance fitness: -0.475 ± 0.2 for the first, -0.527 ± 0.14 for the second.

S28C and S28Y are within error of each other in abundance fitness: -0.283 ± 0.13 for the first, -0.26 ± 0.1 for the second.

S28L and S28V are within error of each other in abundance fitness: -0.204 ± 0.065 for the first, -0.175 ± 0.089 for the second.

I10H and I10F are within error of each other in abundance fitness: -0.862 ± 0.23 for the first, -0.877 ± 0.47 for the second.

I10Q and I10M are within error of each other in abundance fitness: -0.541 ± 0.16 for the first, -0.421 ± 0.23 for the second.

V50Y and V50W are within error of each other in abundance fitness: -0.761 ± 0.35 for the first, -0.903 ± 0.15 for the second.

V50E and V50I are within error of each other in abundance fitness: -0.538 ± 0.18 for the first, -0.524 ± 0.16 for the second.

L53F and L53Q are within error of each other in abundance fitness: -0.785 ± 0.24 for the first, -0.567 ± 0.12 for the second.

L53W and L53K are within error of each other in abundance fitness: -0.595 ± 0.095 for the first, -0.366 ± 0.26 for the second.

L53H and L26D are within error of each other in abundance fitness: -0.666 ± 0.14 for the first, -0.833 ± 0.34 for the second.

L26C and L26T are within error of each other in abundance fitness: -0.618 ± 0.11 for the first, -0.657 ± 0.13 for the second.

Going from L26S to L26W, the abundance fitness falls from -0.419 ± 0.069 to -1.02 ± 0.17.

K49D and K49H are within error of each other in abundance fitness: -0.389 ± 0.19 for the first, -0.628 ± 0.27 for the second.

K49W and E16G are within error of each other in abundance fitness: -0.722 ± 0.38 for the first, -0.858 ± 0.098 for the second.

E16M and E8S are within error of each other in abundance fitness: -0.186 ± 0.19 for the first, -0.276 ± 0.068 for the second.

E8Q and E8I are within error of each other in abundance fitness: -0.569 ± 0.11 for the first, -0.768 ± 0.45 for the second.

E8F and E8R are within error of each other in abundance fitness: -0.691 ± 0.32 for the first, -0.36 ± 0.055 for the second.

E8G and E8T are within error of each other in abundance fitness: -0.29 ± 0.057 for the first, -0.209 ± 0.077 for the second.

D55Q and D55N are within error of each other in abundance fitness: -0.277 ± 0.13 for the first, -0.347 ± 0.16 for the second.

First: D55P
Second: D55G
The abundance fitness of the first is lower: -0.676 ± 0.079 for the first, -0.51 ± 0.05 for the second.

E62V and E62I are within error of each other in abundance fitness: -0.853 ± 0.092 for the first, -0.912 ± 0.31 for the second.

C18V and C18E are within error of each other in abundance fitness: -0.004 ± 0.079 for the first, 0.062 ± 0.095 for the second.

C18P and C18F are within error of each other in abundance fitness: -0.299 ± 0.074 for the first, -0.375 ± 0.19 for the second.

C18N and C18S are within error of each other in abundance fitness: -0.288 ± 0.16 for the first, -0.24 ± 0.061 for the second.

L31R and L31F are within error of each other in abundance fitness: -0.732 ± 0.087 for the first, -0.74 ± 0.18 for the second.

L31V and L31A are within error of each other in abundance fitness: -0.588 ± 0.13 for the first, -0.615 ± 0.089 for the second.

Variant L31P has an abundance fitness of -0.588 ± 0.063.
